Results from PMC8930771, “Structural basis of phosphatidylinositol 3-kinase C2α function” (Nature Structural & Molecular Biology, 2022).

B1: PI3KC2α^ΔN+ΔPX−C2 WT (mouse PI3KC2α amino acids 377–1,400) [mouse] / GST-distal C2 (PI3KC2α amino acids 1,561–1,686) [mouse] (parent complex)
chain 1: VQNDEVAAFCQSIMKLKTKFPYTDHCTNPGYLLSPVTVQRNMCGENASVKVSIEIEGLQLPVTFTCDVSSTVEIIIMQALCWVHDDLNQVDVGSYILKVCGQEEVLQNNHCLGSHEHIQNCRKWDTEIKLQLLTLSAMCQNLARTAEDDEAPVDLNKYLYQIEKPYKEVMTRHPVEELLDSYHYQVELALQTENQHRAVDQVIKAVRKICSALDGVETPSVTEAVKKLKRAVNLPRNKSADVTSLSGSDTRKNSTKGSLNPENPVQVSMDHLTTAIYDLLRLHANSSRCSTACPRGSRNIKEAWTATEQLQFTVYAAHGISSNWVSNYEKYYLICSLSHNGKDLFKPIQSKKVGTYKNFFYLIKWDELIIFPIQISQLPLESVLHLTLFGVLNQSSGSSPDSNKQRKGPEALGKVSLTLFDFKRFLTCGTKLLYLWTSSHTNSIPGAIPKKSYVMERIVLQVDFPSPAFDIIYTSPQIDRNIIQQDKLETLESDIKGKLLDIIHRDSSFGLSKEDKVFLWENRYYCLKHPNCLPKILASAPNWKWANLAKTYSLLHQWPPLCPLAALELLDAKFADQEVRSLAVSWMEAISDDELADLLPQFVQALKYEIYLNSSLVRFLLSRALGNIQIAHSLYWLLKDALHDTHFGSRYEHVLGALLSVGGKGLREELSKQMKLVQLLGGVAEKVRQASGSTRQVVLQKSMERVQSFFLRNKCRLPLKPSLVAKELNIKSCSFFSSNAMPLKVTMVNADPLGEEINVMFKVGEDLRQDMLALQMIKIMDKIWLKEGLDLRMVIFRCLSTGRDRGMVELVPASDTLRKIQVEYGVTGSFKDKPLAEWLRKYNPSEEEYEKASENFIYSCAGCCVATYVLGICDRHNDNIMLRSTGHMFHIDFGKFLGHAQMFGSFKRDRAPFVLTSDMAYVINGGEKPTIRFQLFVDLCCQAYNLIRKQTNLFLNLLSLMIPSGLPELTSIQDLKYVRDALQPQTTDAEATIFFTRLIESSLGSIATKFNFFIHNLAQLRFSG
chain 2: GAVKLSVSYRNGTLFIMVMHIKDLVTEDGADPNPYVKTYLLPDTHKTSKRKTKISRKTRNPTFNEMLVYSGYSKETLRQRELQLSVLSAESLRENFFLGGITLPLKDFNLSKETVKWYQLTAATYL

Variants of: B1
Test: GST pull-down, SDS-PAGE with Coomassie Blue staining, quantified with ImageJ; n = 3; binding of WT set to 100%; parent: 100; read off a plot

Row | percent of parent [%] | Variant
1 | ~42 | chain 1 K50A, chain 1 W82A, chain 1 D85A, chain 1 D86A
